{
  "source": "patent US20230061378A1",
  "about": "(SUZHOU ALPHAMAB, published 2023)",
  "binders": {"B1": {"name": "1B7 (antibody, V domains shown)", "VH": "QVQLQQPGSELVRPGASVKLSCKASGYKFTSYWMHWVKQRPGQGLEWIGNIFPGSGSTNYDEKFNSKATLTVDTSSNTAYMQLSSLTSEDSAVYYCTRWLSGAYFDYWGQGTTLTVSS", "VL": "QIVLTQSPALMSASPGEKVTMTCSASSSVSFMYWYQQKPRSSPKPWIYLTSNLPSGVPARFSGSGSGTSYSLTISSMEAEDAATYYCQQWSSHPPTFGSGTKLEIK"}, "B2": {"name": "11E6 (antibody, V domains shown)", "VH": "EVKVVESGGGLVQPGGSLRLSCTTSGFTFTDYYVSWVRQPPGKALEWLGFIRNKVNGYTTEFSSSVKGRFTISRDNSQSILYLQMNTLRVEDSATYYCARVSYYGRGWYFDYWGQGTTLTVSS", "VL": "DIVMTQSTSSLSASLGDRVTISCRASQDIDNYLSWFQQKPDGTVKLLIYYTSRLHSGVPSRFSGSGSGTDYSLTISSLDQEDIATYFCQQGNTFPWTFGGGTKLEIK"}},
  "key": {"[1]": {"target": "T1, pertussis toxin (PT) (Bordetella pertussis, UniProt P04977 35-269; P04978 28-226; P04979 29-227; P0A3R5 43-152; P04981 35-133)", "assay": "BLI, antibody on AHC biosensor, PTpuri 6.25-100 nM in solution"}, "[2]": {"target": "T1, pertussis toxin (PT)", "assay": "cell-based or functional assay"}, "[3]": {"target": "T1, pertussis toxin (PT)", "assay": "BLI in-tandem binning on PT-biotin; competitor (Ab1, bound first): 1B7"}, "[4]": {"target": "T1, pertussis toxin (PT)", "assay": "BLI in-tandem binning on PT-biotin; competitor (Ab1, bound first): 11E6"}},
  "data": [
    {"binder": "B1", "values": [
      {"measurement": "Kd", "setting": "[1]", "result": "< 1", "unit": "pM"},
      {"measurement": "koff", "setting": "[1]", "result": "< 1e-07", "unit": "s⁻¹"},
      {"measurement": "kon", "setting": "[1]", "result": 387000, "unit": "M⁻¹ s⁻¹"},
      {"measurement": "Minimum neutralizing concentration (CHO-K1 cells with PT toxin)", "setting": "[2]", "result": 1.6, "unit": "µg/mL"},
      {"measurement": "Ab2 with Ab1/Ab2 without Ab1", "setting": "[3]", "result": 1.1, "unit": "%"}
    ]},
    {"binder": "B2", "values": [
      {"measurement": "Kd", "setting": "[1]", "result": "< 1", "unit": "pM"},
      {"measurement": "koff", "setting": "[1]", "result": "< 1e-07", "unit": "s⁻¹"},
      {"measurement": "kon", "setting": "[1]", "result": 311000, "unit": "M⁻¹ s⁻¹"},
      {"measurement": "Minimum neutralizing concentration (CHO-K1 cells with PT toxin)", "setting": "[2]", "result": 0.8, "unit": "µg/mL"},
      {"measurement": "Ab2 with Ab1/Ab2 without Ab1", "setting": "[4]", "result": 0.2, "unit": "%"}
    ]}
  ]
}
